The record followed here is article PMC9164069, “NADPH–Cytochrome P450 Reductase Mediates the Fatty Acid Desaturation of ω3 and ω6 Desaturases from Mortierella alpina” (Current Issues in Molecular Biology, 2022).

The Km is the substrate concentration at which the rate is half of its maximum. What is called kcat is the maximal rate divided by the concentration of active sites. One may read the kcat/Km as the second-order rate constant that governs catalysis at low substrate concentration.

The target of data set [1] is T1, NADPH-CytP450R (Homo sapiens, UniProt P16435).
T1 construct: gene POR; soluble catalytic domain, C-terminal 614 residues (VRESSFV through SLDVWS), N-terminal His6 tag (pET15b), E. coli BL21(DE3), about 70 kDa
T1 sequence (P16435 64-677): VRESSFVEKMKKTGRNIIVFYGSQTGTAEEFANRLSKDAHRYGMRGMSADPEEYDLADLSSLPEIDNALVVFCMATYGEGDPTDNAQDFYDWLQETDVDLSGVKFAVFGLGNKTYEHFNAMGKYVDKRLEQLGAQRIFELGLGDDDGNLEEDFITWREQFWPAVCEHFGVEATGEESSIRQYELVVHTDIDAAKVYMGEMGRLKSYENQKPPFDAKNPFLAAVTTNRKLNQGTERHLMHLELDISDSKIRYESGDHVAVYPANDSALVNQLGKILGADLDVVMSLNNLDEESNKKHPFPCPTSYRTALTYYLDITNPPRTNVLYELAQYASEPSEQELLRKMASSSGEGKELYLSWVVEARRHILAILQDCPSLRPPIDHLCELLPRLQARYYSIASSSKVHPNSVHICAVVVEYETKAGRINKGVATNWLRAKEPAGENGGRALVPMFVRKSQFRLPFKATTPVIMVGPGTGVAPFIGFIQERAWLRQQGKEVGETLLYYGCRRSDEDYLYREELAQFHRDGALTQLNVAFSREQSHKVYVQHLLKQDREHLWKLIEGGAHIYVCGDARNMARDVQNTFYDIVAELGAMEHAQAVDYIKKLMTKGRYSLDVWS
Description: absorption shift of Cytb5 on reduction ([…] to […] nm). The data set is classed as biochemical. The conditions noted are these: pH 7.5, 25 °C; 100 mM Hepes, 150 mM NaCl, 0.25 µM CytP450R, 5 µM human Cytb5, 5 µM NADPH.

Substrate in data set [2]: CCCCC/C=C\C/C=C\CCCCCCCC(=O)SCCNC(=O)CCNC(=O)[C@H](O)C(C)(C)COP(=O)(O)OP(=O)(O)OC[C@H]1O[C@@H](n2cnc3c(N)ncnc32)[C@H](O)[C@@H]1OP(=O)(O)O
Description: purified protein. The data set is classed as biochemical, Mortierella alpina. The conditions noted are these: pH 7.5, 28 °C, 25 mM Hepes, 150 mM NaCl, 1 µM NADPH, 100 nM desaturase, 0.5 µM human Cytb5, 1 µM human CytP450R, 0.002% Fos-16.

Substrate in data set [3]: CCCCC/C=C\C/C=C\C/C=C\CCCCC(=O)SCCNC(=O)CCNC(=O)[C@H](O)C(C)(C)COP(=O)(O)OP(=O)(O)OC[C@H]1O[C@@H](n2cnc3c(N)ncnc32)[C@H](O)[C@@H]1OP(=O)(O)O
Kind of data set: purified protein. The class given is biochemical, Mortierella alpina. Particulars: pH 7.5, 28 °C, 25 mM Hepes, 150 mM NaCl, 1 µM NADPH, 100 nM desaturase, 0.5 µM human Cytb5, 1 µM human CytP450R, 0.002% Fos-16.

Substrate in data set [4]: CCCCC/C=C\C/C=C\C/C=C\C/C=C\CCCC(=O)SCCNC(=O)CCNC(=O)[C@H](O)C(C)(C)COP(=O)(O)OP(=O)(O)OC[C@H]1O[C@@H](n2cnc3c(N)ncnc32)[C@H](O)[C@@H]1OP(=O)(O)O
Description: purified protein. The class given is biochemical, Mortierella alpina. Particulars: pH 7.5, 28 °C, 25 mM Hepes, 150 mM NaCl, 1 µM NADPH, 100 nM desaturase, 0.5 µM human Cytb5, 1 µM human CytP450R, 0.002% Fos-16.

Substrate in data set [5]: CCCCCC/C=C\CCCCCCCC(=O)SCCNC(=O)CCNC(=O)[C@H](O)C(C)(C)COP(=O)(O)OP(=O)(O)OC[C@H]1O[C@@H](n2cnc3c(N)ncnc32)[C@H](O)[C@@H]1OP(=O)(O)O
Description: purified protein. The conditions noted are these: pH 7.5, 28 °C, 25 mM Hepes, 150 mM NaCl, 1 µM NADPH, 100 nM desaturase, 0.5 µM human Cytb5, 1 µM human CytP450R, 0.002% Fos-16. The class given is biochemical, Mortierella alpina.

Substrate in data set [6]: CCCCCCCC/C=C\CCCCCCCC(=O)SCCNC(=O)CCNC(=O)[C@H](O)C(C)(C)COP(=O)(O)OP(=O)(O)OC[C@H]1O[C@@H](n2cnc3c(N)ncnc32)[C@H](O)[C@@H]1OP(=O)(O)O
Kind of data set: purified protein. The class given is biochemical, Mortierella alpina. Particulars: pH 7.5, 28 °C, 25 mM Hepes, 150 mM NaCl, 1 µM NADPH, 100 nM desaturase, 0.5 µM human Cytb5, 1 µM human CytP450R, 0.002% Fos-16.

With `NC(=O)C1=CN([C@@H]2O[C@H](COP(=O)(O)OP(=O)(O)OC[C@H]3O[C@@H](n4cnc5c(N)ncnc54)[C@H](OP(=O)(O)O)[C@@H]3O)[C@@H](O)[C@H]2O)C=CC1` [NADPH], the “absorption shift of Cytb5 on reduction (412 to 422, 521, 554 nm)” value in data set [1] is recorded as “when NADPH was added, Cytb5 was instantly reduced”.

B1: M. alpina ω3 desaturase (Mortierella alpina) (protein)
chain: MAPPHVVDEQVRRRIVVEDEIKSKKQFERNYVPMDFTIKEIRDAIPAHLFIRDTTKSILHVVKDLVTIAIVFYCATFIETLPSLALRVPAWITYWIIQGTVMVGPWILAHECGHGAFSDSKTINTIFGWVLHSALLVPYQAWAMSHSKHHKGTGSMTKDVVFIPATRSYKGLPALEKPAVEEEVSEQEHHHHEESIFAETPIYTLGALLFVLTFGWPLYLIVNFSGHEAPHWVNHFQTVAPLYEPHQRKNIFYSNCGIVAMGSILTYLSMVFSPLTVFMYYGIPYLGVNAWIVCITYLQHTDPKVPHFRDNEWNFQRGAACTIDRSFGTIVNHLHHHIGDSHQCHHMFSQMPFYNAVEATKYLKAKLGKYYIFDDTPIAKALYRNWRECKFVEDEGDVVFYKH
notes: membrane desaturase expressed in Pichia pastoris (pPink-HC) with 3C site, ZZ-tag and RGS-His10-tag; tags cut off by rhinovirus 3C protease; Fos-Choline-16 solubilized, IgG Sepharose and size exclusion purified
In the case of B1, in data set [2], the Km was 16.0 ± 2.2 µM, the kcat stood at 0.11 ± 0.01 s⁻¹ and the kcat/Km was found to be 6830 M⁻¹ s⁻¹. In data set [3], the Km is listed as 87.8 ± 9.9 µM, the kcat amounted to 0.168 ± 0.00667 s⁻¹ and the kcat/Km is 2000 M⁻¹ s⁻¹. In addition, in data set [4], the Michaelis-Menten constant (Km) was determined as 157.0 ± 23.8 µM, the kcat amounted to 0.0233 ± 0.00167 s⁻¹ and the kcat/Km is 167 M⁻¹ s⁻¹.

B2: M. alpina ω6 desaturase (Mortierella alpina) (protein)
chain: MAPPNTIDAGLTQRHISTSAAPTSAKPAFERNYQLPEFTIKEIRECIPAHCFERSGLRGLCHVAIDLTWASLLFLAATQIDKFENPLIRYLAWPAYWIMQGIVCTGIWVLAHECGHQSFSTSKTLNNTVGWILHSMLLVPYHSWRISHSKHHKATGHMTKDQVFVPKTRSQVGLPPKENAAAAVQEEDMSVHLDEEAPIVTLFWMVIQFLFGWPAYLIMNASGQDYGRWTSHFHTYSPIFEPRNFFDIIISDLGVLAALGALIYASMQLSLLTVTKYYIVPYLFVNFWLVLITFLQHTDPKLPHYREGAWNFQRGALCTVDRSFGKFLDHMFHGIVHTHVAHHLFSQMPFYHAEEATYHLKKLLGEYYVYDPSPIVVAVWRSFRECRFVEDHGDVVFFKK
notes: as for B1
Turning to B2, in data set [5], the Km is given as 3.9 ± 0.9 µM, the kcat was found to be 0.00333 ± 0.000167 s⁻¹ and the specificity constant (kcat/Km) was 667 M⁻¹ s⁻¹. In data set [6], the Km turned out to be 5.4 ± 0.8 µM, the kcat came to 0.00833 ± 0.000333 s⁻¹ and the kcat/Km was determined as 1500 M⁻¹ s⁻¹.
